Source: the supplement of paper PMC9112550, “Optimization of the antimicrobial peptide Bac7 by deep mutational scanning” (BMC Biology, 2022)

Tested on: Escherichia coli TOP10
Assay: shrunken log2 fold change of peptide-encoding DNA abundance (4.5 h post-induction vs induction); higher = less antimicrobial activity (less host growth inhibition)
Settings: time post-induction: 4.5 h; library: site-saturation at positions 5, 18, 19, 20
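Further: peptides expressed intracellularly from a pBAD plasmid library in pooled LB shake-flask culture, induced with 0.3% L-arabinose, DNA abundance read by NGS, three biological replicates, DESeq2 with apeglm shrinkage.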

Sequence | shrunken log2 fold change
RRIRDRPPRLPRPRPRPITIPRP | -0.175
RRIRMRPPRLPRPRPRPFKFPRP | -0.012
RRIRERPPRLPRPRPRPDVGPRP | -0.59
RRIRSRPPRLPRPRPRPPIHPRP | -0.329
RRIRGRPPRLPRPRPRPLYKPRP | 0.0468
RRIRYRPPRLPRPRPRPVPEPRP | -0.294
RRIRCRPPRLPRPRPRPKGNPRP | -0.31
RRIRMRPPRLPRPRPRPQKTPRP | -0.0249
RRIRSRPPRLPRPRPRPMMFPRP | 0.0732
RRIRKRPPRLPRPRPRPPPWPRP | 1.03
RRIRHRPPRLPRPRPRPPYDPRP | -0.0114
RRIRWRPPRLPRPRPRPRRCPRP | 0.224
RRIRVRPPRLPRPRPRPLKFPRP | 0.044
RRIRDRPPRLPRPRPRPHRVPRP | -0.0141
RRIRYRPPRLPRPRPRPVRGPRP | 0.393
RRIRFRPPRLPRPRPRPNTMPRP | -0.648
RRIRRRPPRLPRPRPRPTAVPRP | 0.606
RRIRCRPPRLPRPRPRPAMEPRP | 0.111
RRIRPRPPRLPRPRPRPLQVPRP | 0.013
RRIRIRPPRLPRPRPRPYLNPRP | -0.239
RRIRDRPPRLPRPRPRPHDNPRP | -0.323
RRIRDRPPRLPRPRPRPVPGPRP | 0.214
RRIRERPPRLPRPRPRPVCDPRP | 0.078
RRIRGRPPRLPRPRPRPPFLPRP | 0.444
RRIRGRPPRLPRPRPRPYLGPRP | 0.167

Sequence | shrunken log2 fold change
RRIRPRPPRLPRPRPRPAWNPRP | 0.396
RRIRFRPPRLPRPRPRPDHGPRP | 0.0405
RRIRYRPPRLPRPRPRPQKSPRP | -0.208
RRIRVRPPRLPRPRPRPRLPPRP | 0.636
RRIRRRPPRLPRPRPRPYINPRP | -0.832
RRIRWRPPRLPRPRPRPTYNPRP | 0.4
RRIRHRPPRLPRPRPRPMMGPRP | -0.01
RRIRFRPPRLPRPRPRPHDKPRP | -0.00198
RRIRDRPPRLPRPRPRPLWQPRP | 0.316
RRIRTRPPRLPRPRPRPNFGPRP | -0.0173
RRIRTRPPRLPRPRPRPQVFPRP | -0.0243
RRIRHRPPRLPRPRPRPHVCPRP | 0.00854
RRIRDRPPRLPRPRPRPHPLPRP | -0.216
RRIRARPPRLPRPRPRPFKYPRP | -0.0956
RRIRCRPPRLPRPRPRPHAPPRP | 0.0482
RRIRKRPPRLPRPRPRPRCVPRP | 0.276
RRIRPRPPRLPRPRPRPFEKPRP | 0.0465
RRIRARPPRLPRPRPRPWVEPRP | 0.151
RRIRGRPPRLPRPRPRPDTVPRP | -0.116
RRIRLRPPRLPRPRPRPQWLPRP | -0.141
RRIRSRPPRLPRPRPRPPLFPRP | 0.257
RRIRGRPPRLPRPRPRPMSYPRP | 0.0417
RRIRLRPPRLPRPRPRPREMPRP | 0.149
RRIRVRPPRLPRPRPRPNVLPRP | 0.0178
RRIRNRPPRLPRPRPRPGCLPRP | -0.000466

Sequence | shrunken log2 fold change
RRIRNRPPRLPRPRPRPAISPRP | -0.128
RRIRARPPRLPRPRPRPIMFPRP | -0.0901
RRIRTRPPRLPRPRPRPIAQPRP | -0.0464
RRIRWRPPRLPRPRPRPMGSPRP | -0.0192
RRIRHRPPRLPRPRPRPSVRPRP | -0.158
RRIRPRPPRLPRPRPRPGHFPRP | 0.0437
RRIRTRPPRLPRPRPRPPFPPRP | 0.256
RRIRWRPPRLPRPRPRPYQTPRP | -0.223
RRIRYRPPRLPRPRPRPPSRPRP | 0.232
RRIRARPPRLPRPRPRPYFHPRP | -0.444
RRIRERPPRLPRPRPRPSIYPRP | -1
RRIRLRPPRLPRPRPRPFTSPRP | -0.153
RRIRVRPPRLPRPRPRPHENPRP | -0.38
RRIRFRPPRLPRPRPRPVGGPRP | 0.405
RRIRYRPPRLPRPRPRPMPRPRP | 0.0558
RRIRRRPPRLPRPRPRPCACPRP | -0.0784
RRIRARPPRLPRPRPRPHDVPRP | 0.0276
RRIRKRPPRLPRPRPRPYQCPRP | -0.0062
RRIRRRPPRLPRPRPRPFVFPRP | 0.274
RRIRRRPPRLPRPRPRPPIVPRP | -0.00408
RRIRLRPPRLPRPRPRPFRNPRP | -0.0827
RRIRDRPPRLPRPRPRPHHSPRP | -1.11
RRIRARPPRLPRPRPRPSAEPRP | 0.976
RRIRKRPPRLPRPRPRPLYKPRP | -0.112
RRIRQRPPRLPRPRPRPEIAPRP | -0.151

Sequence | shrunken log2 fold change
RRIRCRPPRLPRPRPRPDEFPRP | -0.169
RRIRDRPPRLPRPRPRPTALPRP | 0.573
RRIRNRPPRLPRPRPRPQDMPRP | 0.0124
RRIRKRPPRLPRPRPRPWHNPRP | -0.124
RRIRSRPPRLPRPRPRPQKDPRP | -0.323
RRIRHRPPRLPRPRPRPQQQPRP | -0.158
RRIRGRPPRLPRPRPRPNKDPRP | 0.179
RRIRYRPPRLPRPRPRPPWEPRP | -0.381
RRIRGRPPRLPRPRPRPALKPRP | 0.504
RRIRMRPPRLPRPRPRPWHLPRP | -0.00137
RRIRARPPRLPRPRPRPQLPPRP | 0.327
RRIRARPPRLPRPRPRPIRFPRP | 0.247
RRIRPRPPRLPRPRPRPEYSPRP | -0.117
RRIRMRPPRLPRPRPRPDCAPRP | 1.95
RRIRARPPRLPRPRPRPMSKPRP | 0.16
RRIRNRPPRLPRPRPRPSNCPRP | -0.801
RRIRFRPPRLPRPRPRPPRLPRP | 0.399
RRIRLRPPRLPRPRPRPDLGPRP | -0.0612
RRIRHRPPRLPRPRPRPRINPRP | -0.0802
RRIRVRPPRLPRPRPRPEPAPRP | 0.44
RRIRMRPPRLPRPRPRPTIGPRP | 0.277
RRIRHRPPRLPRPRPRPMGWPRP | 0.317
RRIRMRPPRLPRPRPRPLKFPRP | 0.426
RRIRIRPPRLPRPRPRPRDSPRP | -0.346
RRIRSRPPRLPRPRPRPTKQPRP | 0.129

Sequence | shrunken log2 fold change
RRIRLRPPRLPRPRPRPMKTPRP | -0.034
RRIRRRPPRLPRPRPRPTMKPRP | 0.286
RRIRERPPRLPRPRPRPMIDPRP | -0.28
RRIRNRPPRLPRPRPRPYYKPRP | -1.46
RRIRWRPPRLPRPRPRPWRQPRP | 0.25
RRIRERPPRLPRPRPRPHCQPRP | 0.00361
RRIRWRPPRLPRPRPRPWYKPRP | -0.1
RRIRLRPPRLPRPRPRPQLMPRP | 0.0272
RRIRWRPPRLPRPRPRPTFLPRP | 0.146
RRIRFRPPRLPRPRPRPEVHPRP | -0.309
RRIRMRPPRLPRPRPRPPNAPRP | 1.11
RRIRHRPPRLPRPRPRPMYQPRP | -0.00419
RRIRLRPPRLPRPRPRPVMQPRP | 0.00383
RRIRHRPPRLPRPRPRPFKHPRP | -0.454
RRIRPRPPRLPRPRPRPMEPPRP | -0.153
RRIRFRPPRLPRPRPRPGWQPRP | 0.188
RRIRTRPPRLPRPRPRPTRVPRP | 0.214
RRIRYRPPRLPRPRPRPTGTPRP | -0.172
RRIRMRPPRLPRPRPRPWQAPRP | 0.00735
RRIRVRPPRLPRPRPRPACIPRP | -0.0537
RRIRERPPRLPRPRPRPPDWPRP | 0.674
RRIRIRPPRLPRPRPRPVCMPRP | -0.564
RRIRTRPPRLPRPRPRPHGLPRP | -0.034
RRIRKRPPRLPRPRPRPQLVPRP | 0.225
RRIRHRPPRLPRPRPRPEHKPRP | 0.000824
